Paper PMC10721955

Biological target: Flag-tagged mouse MRTF-A (MAL fl), in vitro translated
Assay: in vitro protein binding assay (IP/IB of in vitro translated tagged proteins), quantified
Details: IP: HA-gel (HA-CRP2), three independent experiments, parent: 100, read off a plot

percent of parent [%] | Substance
22 | HA-tagged human CRP2 (cysteine-and glycine-rich protein 2), in vitro translated (from UniProt Q16527) 153L/D; 158L/D
21 | HA-tagged human CRP2 (cysteine-and glycine-rich protein 2), in vitro translated (from UniProt Q16527) 154E/L; 156T/D; 157T/D
